Results: US11248246B2, “Beta-glucosidase for producing glucose and laminarioligosaccharide from sea weed” (Korea University Research and Business Foundation, priority 2018, dated 2022)

How the values were obtained:
[1] = Optimum pH of Bgl1B protein (relative activity at pH 4.0-9.0); assay type: biochemical
Description: FIG. 2 illustrates the relative activity of Bgl1B at a pH ranging from 4.0 to 9.0. […] The activity was reduced to 30% or less at a pH of 4 and at a pH of 8 or higher.

[2] = Optimum temperature of Bgl1B (relative activity at 2° C. to 60° C.); assay type: biochemical
Method: FIG. 3 illustrates the relative activity of Bgl1B at a temperature ranging from 2° C. to 60° C. […] An enzymatic activity of approximately 83% was maintained at 20° C. […] In addition, the enzyme can be inactivated with only simple heat treatment.

[3] = Thermal stability of Bgl1B; assay type: physicochemical
Description: FIG. 4 illustrates the stability with respect to temperature of the enzyme.

[4] = Substrate specificity of Bgl1B on disaccharides (TLC); assay type: biochemical; details: 0.2% (w/v) substrate, 20 mM sodium phosphate buffer (pH 6), 0.6 U of Bgl1B, 1 hour
Method: To confirm the substrate specificity of the Bgl1B protein, each of 0.2% (w/v) of a plurality of disaccharides in a 20 mM sodium phosphate buffer (pH 6) was allowed to react with 0.6 U of Bgl1B for 1 hour.

[5] = Enzymatic reaction rate (Lineweaver-Burk), laminaribiose; assay type: biochemical
Method: To confirm the enzymatic reaction rate of the Bgl1B protein for various substrates, the Bgl1B protein was allowed to react with each substrate at various concentrations of 0.1-0.4% (w/v) at pH 6 and 40° C. Vmax, Km, and kcat, which are parameters related to an enzymatic reaction rate, were determined from the Lineweaver-Burk plot.

[6] = Hydrolysis of laminarin to glucose (HPLC); assay type: biochemical; details: 3 U of Bgl1B, 0.2% (w/v) of laminarin, 40° C., 24 hours
Method: (§1) Characteristics of the enzymatic reaction of the Bgl1B protein using, as a substrate, laminarin, which is a polysaccharide, were analyzed using high performance liquid chromatography (HPLC) and thin layer chromatography (TLC). HPLC analysis was performed using Agilent 1100 HPLC equipped with a gel permeation and ligand exchange column (KS-802; Shodex) and a refractive index detector, and analysis conditions were a flow rate of 0.5 mL/min, a column temperature of 80° C., and sterile water as a mobile phase. For TLC analysis, 1 μl of a reaction product was loaded onto silica gel 60 plates (Merck), and then developed using a mixed solvent of n-butanol:acetic acid:water (volume ratio of 3:2:2), and treated with 10% (v/v) of sulfuric acid for visualization.

[7] = Transglycosylase activity against laminarin (HPLC, TLC); assay type: biochemical; details: 0.03 U of Bgl1B, 0.2% (w/v) of laminarin, after 24 hours
Method: as §1

[8] = Transglycosylase activity against laminaribiose (HPLC, TLC, FIG. 8); assay type: biochemical; details: 0.002 U of Bgl1B, 0.3% (w/v) of laminarin (so in the source)
Method: as §1

B1: Bgl1B: β-glucosidase having the amino acid sequences of SEQ ID NO: 1, from Saccharophagus degradans 2-40^T, with exo-type glucanase and transglycosylase activities (protein)
chain: MNRLTLPPSSRLRSKEFTFGVATSSYQIEGGIDSRLPCNWDTFCEQPNTIIDNTNGAIACDHINRWQDDIELIANLGVDAYRFSIAWGRVINLDGSLNNEGVTFYKNILTKLREKNLKAYITLYHWDLPQHLEDAGGWLNRDTAYKFRDYVNLITQALDDDVFCYTTLNEPFCSAYLGYEIGVHAPGIKDLASGRKAAHHLLLAHGLAMQVLRKNCPNSLSGIVLNMSPCYAGSNAQADIDAAKRADDLLFQWYAQPLLTGCYPDAINSLPDNAKPPICEGDMALISQPLDYLGLNYYTRAVFFADGNGGFTEQVPEGVELTDMGWEVYPQGLTDLLIDLNQRYTLPPLLITENGAAMVDELVNGEVNDIARINYFQTHLQAVHNAIEQGVDVRGYFAWSLMDNFEWALGYSKRFGITYVDYQTQKRTLKASGHAFAEFVSSRS
modifications: Saccharophagus degradans 2-40T
- pH of highest activity ([1]; 0.1% (w/v) cellobiose, 40° C., 15 minutes, pH 4.0-9.0): 6
- enzymatic activity at about pH 5 to about pH 7.5 ([1]; about pH 5 to about pH 7.5): ≥ 80%
- relative activity at a pH of 4 ([1]; pH 4, 0.1% (w/v) cellobiose, 40° C., 15 minutes): ≤ 30%
- relative activity at a pH of 8 or higher ([1]; pH 8 or higher, 0.1% (w/v) cellobiose, 40° C., 15 minutes): ≤ 30%
- enzymatic activity at 50° C. or higher ([2]; 50° C. or higher): sharply reduced
- enzymatic activity at 2-10° C. ([2]; pH 6, 2-10° C.): ≥ 58%
- enzymatic activity at pH 6 and 10° C. to 40° C. ([2]; pH 6, 10° C. to 40° C.): ≥ 80%
- enzymatic activity maintained at 20° C. ([2]; pH 6, 20° C.): approximately 83%
- temperature of highest enzymatic activity ([2]; pH 6, range 2° C. to 60° C.): 40 °C
- enzymatic activity maintained after heat ([3]; after reaction at 40° C. for 1 hour): 80%
- enzymatic activity after heat ([3]; after reaction at 50° C. or higher for 1 hour): almost no activity
- hydrolysis of agarotriose [4]: unable to hydrolyze agarotriose
- hydrolysis of disaccharides with an α-linkage [4]: unable to hydrolyze any disaccharide with an α-linkage
- hydrolysis of disaccharides with β-linkages [4]: able to hydrolyze all disaccharides with β-linkages
- substrate specificity in a collective view of the parameters ([5]; Table 2 substrates compared): highest substrate specificity for laminaribiose
- lower Km compared to Novozyme 188 ([5]; laminaribiose, compared to the commercialized enzyme Novozyme 188): 2.5 fold
- production yield of glucose from laminarin [6]: 75%
- products of laminarin degradation (HPLC) [6]: only glucose is produced without the production of oligosaccharides
- products at very low enzyme concentration (transglycosylase activity) [7]: oligosaccharides with low degrees of polymerization such as DP2, DP3, and DP4 were produced
- product of transglycosylase activity (FIGS. 8A and 8B) [8]: production of DP3 was confirmed
